# IntAct's records for PubMed 22927794
# B1: Long arms of the bivalent protein 1 (Caenorhabditis elegans), Q17604 (parent)
# chain: MVSHKKNDRPRPLWILKIHKRLSLFEFKRYATGIGKDDGQDISWVLKGNAKNNVYQVTVETMENCETDECKKVIWVPDELAESTGTMFEDFKEDQPQESVSSISNNEANWGSSVNELDENYEKMQKEETFDPYDSDSDTSEDSDFDEDFEDSDKTMCSGQS
# Variants of: B1
# Conditions: with glc7b_caeel gsp-2, P48727
# Chain of glc7b_caeel gsp-2, P48727 (P48727 whole entry): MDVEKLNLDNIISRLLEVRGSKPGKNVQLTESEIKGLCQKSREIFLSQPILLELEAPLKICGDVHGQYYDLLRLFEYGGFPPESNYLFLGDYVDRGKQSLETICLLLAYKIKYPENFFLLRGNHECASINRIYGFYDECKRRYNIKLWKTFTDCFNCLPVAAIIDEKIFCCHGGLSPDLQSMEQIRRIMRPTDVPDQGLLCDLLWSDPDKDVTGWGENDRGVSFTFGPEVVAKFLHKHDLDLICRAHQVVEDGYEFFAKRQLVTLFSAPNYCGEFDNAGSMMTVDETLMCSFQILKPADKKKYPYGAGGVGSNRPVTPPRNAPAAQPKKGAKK
row,effect of a mutation on the interaction,Variant
1,increasing interaction strength,V73A;W75A

# Variants of: B1
# Conditions: with glc7a_caeel gsp-1, Q27497
# Chain of glc7a_caeel gsp-1, Q27497 (Q27497 whole entry): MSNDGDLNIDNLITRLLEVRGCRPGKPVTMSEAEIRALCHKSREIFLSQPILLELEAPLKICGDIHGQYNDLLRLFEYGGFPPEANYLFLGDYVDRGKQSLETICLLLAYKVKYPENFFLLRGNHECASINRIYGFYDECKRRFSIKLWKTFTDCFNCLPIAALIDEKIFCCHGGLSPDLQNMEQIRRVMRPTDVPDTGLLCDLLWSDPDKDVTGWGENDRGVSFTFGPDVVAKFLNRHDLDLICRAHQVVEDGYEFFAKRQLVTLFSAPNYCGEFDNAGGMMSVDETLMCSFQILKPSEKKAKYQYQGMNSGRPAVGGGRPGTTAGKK
row,effect of a mutation on the interaction,Variant
1,decreasing interaction strength,V73A;W75A
